From article PMC7821230

Molecular target: BCL‐xL (UniProt Q07817)
Assay: crystal structure; co-crystals of Affimer and target, solved by molecular replacement with Phaser

stoichiometry N: 2
Substance: BCL‐xL (from UniProt Q07817-1 1-233) (natural protein)
